Columns and labels:
Gαi1-intYFP = Gαi1-intYFP (UniProt P63096); assay: FRET or BRET; living HeLa cells cotransfected with Gαi1-intYFP, CFP-Gβ1 and Gγ2, 0.2% FBS overnight, before stimulation (t0); confocal, FRET efficiency at the plasma membrane; also Daple-depleted cells with or without Wnt5a, and Wnt3 stimulation, where FRET continued
GST-FZD7-CT = GST-FZD7-CT (UniProt O75084); assay: pull-down; as a19, His-Gαi3 (GDP) with GST-FZD7-CT in the presence of His-Daple-CT WT

Sequence of Gαi1-intYFP (P63096 whole entry): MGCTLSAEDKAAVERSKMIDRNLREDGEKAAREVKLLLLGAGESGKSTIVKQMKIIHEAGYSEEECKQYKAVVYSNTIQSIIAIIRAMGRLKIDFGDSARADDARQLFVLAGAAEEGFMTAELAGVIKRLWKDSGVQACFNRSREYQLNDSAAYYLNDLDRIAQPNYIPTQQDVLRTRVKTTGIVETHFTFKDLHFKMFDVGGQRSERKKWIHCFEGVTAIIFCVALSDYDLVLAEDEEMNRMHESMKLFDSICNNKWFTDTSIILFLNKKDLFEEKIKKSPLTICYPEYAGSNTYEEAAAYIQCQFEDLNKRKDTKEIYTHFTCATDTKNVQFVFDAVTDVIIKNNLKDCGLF
Sequence of His-Gαi3 (P08753 whole entry): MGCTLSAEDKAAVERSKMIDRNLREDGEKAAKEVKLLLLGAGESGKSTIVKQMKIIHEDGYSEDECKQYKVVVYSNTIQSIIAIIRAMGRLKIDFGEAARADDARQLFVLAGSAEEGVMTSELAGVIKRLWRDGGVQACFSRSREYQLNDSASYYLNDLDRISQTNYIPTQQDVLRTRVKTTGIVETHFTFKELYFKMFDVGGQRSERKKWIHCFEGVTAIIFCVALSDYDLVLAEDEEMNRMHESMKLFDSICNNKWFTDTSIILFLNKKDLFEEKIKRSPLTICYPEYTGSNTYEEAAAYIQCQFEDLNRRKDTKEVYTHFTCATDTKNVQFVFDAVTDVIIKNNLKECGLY

Substance	FRET efficiency (Gαi1-intYFP)	fold increase of binding in the presence of m2 (GST-FZD7-CT) [fold]
CFP-Gβ1 with Gγ2 (from UniProt P62873 1-340; P59768 1-71) (complex)	0.36	–
His-Gαi3 (from UniProt P08753 1-354) (natural protein)	–	5

From publication PMC4484057
